“Also recorded” adds a separate entry of the source.
Assays:
[1] = tested on: GIV, IRS1 and Akt phosphorylation; test: Metabolic insulin signaling in L6 cells by immunoblotting; assay type: cell-based, rat; settings: TAT-transduced L6 myotubes; for phosphorylation of Akt in response to insulin: pS473; for phosphorylation of IRS1 in response to insulin: pY632-IRS1
Protocol: Transfection was carried out with GeneJuice (Novagen) for DNA plasmids or Oligofectamine (Invitrogen) for siRNA oligos according to manufacturer's protocols. Silencer negative Control scrambled (Scr) siRNA used as control was purchased from Ambion and the previously validated (Enomoto et al., 2005) GIV siRNA sequence used was custom-ordered from Dharmacon. For TAT-construct transduction, cells were incubated with 300-800 nM of the TAT-proteins for 30 min at 37° C. prior to three washes with PBS and addition of fresh growth media. For assays involving insulin (Novagen) stimulation of TAT-treated cells, such stimulation was carried out 90 min after transduction.
Unless otherwise indicated, serum starvation of cells for use in experiments involving insulin stimulation was carried out by growing cells overnight in the presence of no serum (i.e., 0% FBS) in the case of Cos7 and L6 cells, or in the presence of 0.2% FBS in the case of HeLa cells. To induce IR, cells were pre-treated with Sodium Palmitate (PA; Sigma-Aldrich) (0.5 mM, stock solution at 5 mM/5% FFA-free BSA in ethanol) or vehicle control (5% FFA-free BSA in ethanol) for 16 h. To reverse IR with TZDs, cells were treated with 50 μM Pioglitazone (Pio) (Sigma-Aldrich) or DMSO (vehicle control) for 18 h prior to stimulation with 100 nM insulin. Treatment with PKCθ pseudo-substrate inhibitor (Santa Cruz Biotechnologies) was performed at 10 μM for 16 h.
Protein samples for immunoblotting were run on SDS/PAGE gels and transferred onto PVDF membranes (Millipore). Membranes were blocked with PBS containing 5% non-fat milk (or with 5% BSA when probing for phosphorylated proteins) before incubation with primary antibodies. GIV was detected using rabbit anti-GIV coiled-coil (Millipore) (1:500); GIV-CT (Santa Cruz Biotechnologies) (1:500); phospho-Tyr1764-GIV (1:500) and phospho-Ser1689-GIV (21st Century Biochemicals) (1:250) antibodies. Other antibodies used in this work include rabbit polyclonal antibodies against Gαi3 (1:333), pan-GP (1:250) and phospho-IRS1 (1:500) from Santa Cruz Biotechnologies; and phospho-Akt (1:250); total Akt (1:250); phospho-ERK (1:250); phospho-AS160 (1:250); total InsRβ (1:500) and total IRS1 (1:500) from Cell signaling. Mouse monoclonal Abs against phospho-InsRβ (1:250), His (1:1000), β-tubulin (1:1000), GFP (1:500) from Santa Cruz Biotechnologies, and control IgG (Bio-Rad Laboratories) were commercially obtained. Goat anti-rabbit and goat anti-mouse Alexa Fluor 680 or IRDye 800 F(ab′)2 secondary antibodies were purchased from Li-Cor Biosciences. Images were processed with ImageJ software (NIH) and assembled as figure panels using Photoshop and Illustrator software (Adobe).

[2] = tested on: 6-mm punch biopsy dermal wounds; test: Dermal wound healing in mice, topical TAT proteins; assay type: in vivo; settings: for wound healing: topical 15 μg (~500 pmol) every 24 h for 8 d, vs TAT control
Protocol: Under general anesthesia, two 6-mm diameter punch biopsy wounds were created on the shaved dorsal surface of 8 wk old female C56BL/6 wild-type mice under sterile conditions. Wounds were then treated with 15 μg (˜500 pmol) of TAT proteins every 24 h for 8 d after injury, and photographed every 48 h over that period, and wound area was manually traced by placing a transparent film over the wound and tracing the outline with a permanent marker. To measure the wound area, the edges of the dermis were determined as the wound edge. […] The tracing was then scanned and measured using an image analysis program (NIH Image J Software). Five mice, each with 2 wounds (a total of 10 wounds) were studied in each treatment arm, and their rate of closure was analyzed. These studies were carried out in a blinded manner such that aliquots of purified TAT proteins were prepared and color coded before their arrival at the animal facility. Consequently, the personnel who performed dermal punch biopsies, daily treatment with TAT proteins, photography and measurement of wound area was blinded to the identity of the compound. The study protocol (FIG. 4B) included standard wound care as per IACUC guidelines.

HeLa cells = test: Actin cytoskeleton remodeling in HeLa cells (phalloidin staining, confocal); assay type: cell-based; settings: ~400 nM TAT peptide
Protocol: HeLa cell lines were fixed at room temperature with 3% paraformaldehyde for 20-25 min, permeabilized (0.2% Triton X-100) for 45 min and incubated for 1 h each with primary and then secondary antibodies as described (7). Dilutions of antibodies and reagents were as follows: His (1:500); Phalloidin (1:1,000); DAPI (1: 2,000); secondary goat anti-rabbit (594) and goat anti-mouse (488) Alexa-conjugated antibodies (1:500). Coverslips were mounted with ProLong Gold (Life Technologies). Cells were imaged on a Leica SPE confocal microscope using a 63× oil objective using 488, 561, and 405 laser lines for excitation. Images were scanned using a line-average of 3. All images were processed using ImageJ software and assembled into figure panels using Photoshop and Illustrator (Adobe).
For TAT-protein transduction, cells were incubated with 400-800 nM of the TAT-proteins for 30 min at 37° C. prior to three washes with PBS and addition of fresh growth media. For analysis of EGF signaling, subconfluent monolayers of HeLa cells were treated with TAT proteins for 30 min, washed with PBS, and subsequently stimulated with EGF (50 nM) at 4 h after TAT transduction. For scratch-wound assays, HeLa monolayers were treated with TAT proteins before and at 12 h after wounding. For cancer cell invasion assays, highly invasive MDA MB 231 breast cancer cells were plated in 6-well dishes, treated with TAT-peptides for 30 min and subsequently lifted and placed in transwell chamber in the presence of serum-free media. For L×2 myofibroblast activation assays, cells were first treated with TAT-proteins for 30 min, starved in serum-free media, and subsequently treated with 1.5 ng/ml TGF-β for 24 h. TAT-protein transduction was repeated every 8 h during the course of TGFβ stimulation (total 3 treatments). For assays involving insulin stimulation of TAT-treated L6 myotubes, such stimulation was carried out 90 min after transduction. In each case, whole cell lysates prepared from cells in duplicate wells were analyzed for signaling pathways and TAT-protein uptake by immunoblotting.

Molecule | phosphorylation of Akt in response to insulin [1] | phosphorylation of IRS1 in response to insulin [1] | rate of wound healing relative to TAT-treated controls ([2]; topical 500 pmol daily) [× the rate] | time of wound healing relative to TAT-treated controls ([2]; topical 500 pmol daily) | wound healing [2] | actin remodeling / actin stress fibers (HeLa cells) | actin remodeling / actin stress fibers (HeLa cells; listed as WT) | wound healing ([2]; listed as FA)
TAT-GIV-CT-WT: Recombinant cell-permeable fusion of TAT-PTD, His and HA tags, linker and human GIV C-terminus (aa 1660-1870), wild type; SEQ ID NO: 2 (protein) MRGSHHHHHHGMASMTGGQQMGRDLYDDDDKDRWGSKLGYGRKKRRQRRRGGSTMSGYPYDVPDYAGSMGGSGHSGETLESRHHKIKTGSPGSEVVTLQQFLEESNKLTSVQIKSSSQENLLDEVMKSLSVSSDFLGKDKPVSCGLARSVSGKTPGDFYDRRTTKPEFLRPGPRKTEDTYFISSAGKPTPGTQGKIKLVKESSLSRQSKDSNPYATLPRASSVISTAEGTTRRTSIHDFLTKDSRLPISVDSPPAAADSNTTAASNVDKVQESRNSKSRSREQQSS | enhancement | enhancement | ~2 | a day earlier | accelerated wound healing; also recorded: accelerates | triggered actin remodeling | not | –
TAT-GIV-CT-FA: GEF-deficient F1685A mutant of the TAT-GIV-CT peptide, dominant-negative; SEQ ID NO: 3 (protein) MRGSHHHHHHGMASMTGGQQMGRDLYDDDDKDRWGSKLGYGRKKRRQRRRGGSTMSGYPYDVPDYAGSMGGSGHSGETLESRHHKIKTGSPGSEVVTLQQALEESNKLTSVQIKSSSQENLLDEVMKSLSVSSDFLGKDKPVSCGLARSVSGKTPGDFYDRRTTKPEFLRPGPRKTEDTYFISSAGKPTPGTQGKIKLVKESSLSRQSKDSNPYATLPRASSVISTAEGTTRRTSIHDFLTKDSRLPISVDSPPAAADSNTTAASNVDKVQESRNSKSRSREQQSS | suppressed | suppressed | – | – | – | suppressed the formation of actin stress fibers | – | delayed wound healing; also recorded: retards
